Experimental data published in CN116178530A.

Biological target: SARS-CoV-2活病毒的刺突蛋白 (SARS-CoV-2) (UniProt P0DTC2)
Assay: cell-based or functional assay

CB6 (antibody) gave a 活病毒中和 ND50 (CPE抑制, Vero E6细胞) of 0.256 µg/mL.
